Legend:
GST-TβR-I = target: T1, GST-TβR-I (Homo sapiens, UniProt P36897, T204D); experiment: GST-TβR-I autophosphorylation assay; assay type: biochemical; conditions: peptides at 1 and 10 μM, FIG. 4A
T1 construct: the complete cytoplasmic part (amino acid residues 148-503) of constitutively active TβR-I (T204D) FLAG-tagged at the C-terminus; made in house; host or cells: E. coli
T1 sequence (P36897 148-503 T204D): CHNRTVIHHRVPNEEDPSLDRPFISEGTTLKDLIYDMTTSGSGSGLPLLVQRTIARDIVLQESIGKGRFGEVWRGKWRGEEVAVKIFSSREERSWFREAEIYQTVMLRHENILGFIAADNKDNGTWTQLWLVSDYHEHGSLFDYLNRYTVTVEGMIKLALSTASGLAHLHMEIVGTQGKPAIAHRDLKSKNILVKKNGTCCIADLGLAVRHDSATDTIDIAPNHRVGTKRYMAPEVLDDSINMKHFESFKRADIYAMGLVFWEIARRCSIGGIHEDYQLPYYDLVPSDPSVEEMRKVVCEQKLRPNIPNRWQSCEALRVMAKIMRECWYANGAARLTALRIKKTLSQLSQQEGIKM
Procedure: In vitro kinase assay: GST-TβRI activity was assayed in vitro using the known TβR-I substrates GST-Smad3deltaMH1, GST-Smad2; GST-Smad1 was used as a control for specificity. The reaction mixture (20 μl) contained 20 mM HEPES (pH 7.4), 10 mM MgCl2, 2 mM MnCl2, 1 mM dithiothreitol (DTT), 5 μM ATP plus 0.5 μCi [γ^32P]ATP (Redivue, Amersham Biosciences), and inhibitors at different concentrations. The reaction was initiated by an addition of 0.02 μg purified GST-TβRI, followed by incubation at 22° C. for 20 min. Reaction was terminated by addition of 5 μl of 5× SDS-sample buffer. Samples were subjected to SDS-PAGE followed by analysis in a FujiX2000 phosphorimager. For all in vitro enzyme assays, the percent inhibition was calculated as 100×(1-Ai/A0), where Ai and A0 are levels of GST-Smad phosphorylation in the presence and absence of inhibitors, respectively. […] Phosphorylated GST-Smad3deltaMH1 and autophosphorylated GST-TβRI were analyzed by tryptic phosphopeptide mapping, as described previously.
A GST-TβR-I autophosphorylation assay was performed in the absence or presence of antp-Sm2S (SEQ ID NO:3), antp-Sm2A (SEQ ID NO:2) and antp-Sm5A (SEQ ID NO:4) peptides at concentrations of 1 and 10 μM, as indicated (FIG. 4A).

ActR-IB (ALK-4) = target: T2, ActR-IB (ALK-4) (Homo sapiens, UniProt P36896); experiment: In vitro kinase assay (autophosphorylation) of receptor expressed in COS-7 cells; assay type: biochemical; conditions: 10 μM peptide, FIG. 5
T2 construct: made in house; host or cells: COS-7 cells (transfected, immunoprecipitated)
T2 sequence (P36896 24-505): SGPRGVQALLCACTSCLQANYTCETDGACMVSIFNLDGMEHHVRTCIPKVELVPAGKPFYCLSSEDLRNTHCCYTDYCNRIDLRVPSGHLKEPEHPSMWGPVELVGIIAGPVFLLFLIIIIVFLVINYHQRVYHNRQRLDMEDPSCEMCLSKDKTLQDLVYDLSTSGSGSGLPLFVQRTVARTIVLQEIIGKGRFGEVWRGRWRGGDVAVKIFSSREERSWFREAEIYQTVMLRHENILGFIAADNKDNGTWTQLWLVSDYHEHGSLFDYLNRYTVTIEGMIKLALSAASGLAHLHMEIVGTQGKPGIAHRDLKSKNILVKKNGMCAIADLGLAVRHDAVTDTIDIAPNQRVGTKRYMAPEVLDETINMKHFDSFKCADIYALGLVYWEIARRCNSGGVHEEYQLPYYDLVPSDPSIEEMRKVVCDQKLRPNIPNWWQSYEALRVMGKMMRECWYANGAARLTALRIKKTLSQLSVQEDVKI
Procedure: For in vitro kinase assay of type I and type II TGFβ family receptors, p38α and SAPKα2 kinases, COS-7 cells were transfected with the kinase expression vectors or the control empty pcDNA3 vector using the DEAE-dextran method. Proteins were extracted in a lysis buffer (50 mM Tris-HCl, pH 7.5, 50 mM NaCl, 1% NP-40, 10 μg/mL aprotinin, 0.1 mM PMSF). HA-tagged proteins (ALK1 to ALK7, p38R, SAPKR2) were immunoprecipitated with anti-HA antibody (12CA5; Roche); His6-tagged proteins (type II receptors) were precipitated with Ni-NTA agarose (Qiagen). The precipitates were washed in extraction buffer, with 20 mM imidazole for Ni-NTA agarose-precipitated proteins, and two times with kinase buffer (20 mM HEPES, pH 7.4, 10 mM MgCl2, 2 mM MnCl2, 1 mM DTT). The kinase reaction was initiated by addition of 20 μL of kinase buffer containing 0.5 μCi of [γ-32P]ATP, 5.0 μM ATP, and inhibitory peptides at a final concentration of 10 μM. The reaction was performed at 22° C. for 20 min and terminated by addition of SDS-containing sample buffer and boiling for 5 min. The reaction products were analyzed by SDS-PAGE and exposure in a Fuji X2000 phosphorimager. Equal loading was controlled by immunoblotting aliquots of the samples with a HA probe (Y-11; Santa Cruz) or anti-His antibody (Qiagen).
To evaluate whether the substrate-mimicking peptides affect kinases of type I and type II reptors of the TGFβ family, we studied the influence of peptides on authophosphorylation of all known mammalian type I receptors [ALK-1, ActR-I (ALK-2), BMPR-IA (ALK-3), ActR-IB (ALK-4), TβR-I (ALK-5), BMPR-IB (ALK-6), and ALK-7], TβRII, ActR-II, BMPR-II, p38R, and SAPKR2 (FIG. 5). The kinases were expressed in COS-7 cells and purified by using specific anti-tag antibodies or Ni-NTA agarose, and kinase activity was tested in the presence of peptides.

Mv1Lu cells = experiment: Growth inhibition assay, [3H]thymidine incorporation; assay type: cell-based; conditions: peptide 50 μM, TGFβ1 0.1 ng/ml, 24 hours; for Reversion of the inhibitory action of TGFβ1 on DNA synthesis: FIG. 7
Procedure: Growth inhibition assay: Growth inhibition assay with MV1Lu cells, using evaluation of [^3H]thymidine incorporation, was performed as described earlier. Briefly, cells were preincubated with peptides for 30 min, and then treated or not with TGFβ1 (0.1 ng/ml) for 24 h. During the last two hours of incubation, [^3H]thymidine was added. Radioactivity incorporated into DNA was measured in a scintillation counter. No cytotoxic effects of peptides were observed after 24 h incubation with cells, as evaluated by observation of cells in a microscope.
To explore whether the antp-Sm2A (SEQ ID NO:2) peptide can interfere with the TGFβ-dependent effects on cells, we performed an assay with Mv1Lu cells, which are widely used in studies of TGFβ effects and are potently growth-inhibited by TGFβ [29]. […] [^3H]thymidine was added to cells for last two hours of incubation, and radioactivity incorporated into DNA was measured.

Sequence | Inhibition of autophosphorylation of GST-TβR-I (GST-TβR-I) | Effect on ActR-IB (ALK-4) kinase (ActR-IB (ALK-4)) | Inhibition of [3H]thymidine incorporation in response to TGFβ1 (Mv1Lu cells) [%] | Reversion of the inhibitory action of TGFβ1 on DNA synthesis (Mv1Lu cells)
RQIKIWFQNRRMKWKKTQMGSPSVRCSAMA (listed as Homo sapiens) [antp-Sm2A] | had a stronger effect | without any effect | 26 | reverted to a significant extent
RQIKIWFQNRRMKWKKTQMGSPSVRCSSMS (listed as Homo sapiens) [antp-Sm2S, penetratin fused to the C-terminus of wild-type Smad2] | inhibited autophosphorylation | without any effect | – | reverted to a significant extent
